Assay results as given in paper PMC6683420 (BMC Molecular and Cell Biology, 2019).

Assays:
[1] = target: T1, human CD40 (human, UniProt P25942); assay: cell-based or functional assay
[2] = target: T1, human CD40; assay: cell-based or functional assay; remark: listed apart in the source

T1 sequence (P25942 21-277): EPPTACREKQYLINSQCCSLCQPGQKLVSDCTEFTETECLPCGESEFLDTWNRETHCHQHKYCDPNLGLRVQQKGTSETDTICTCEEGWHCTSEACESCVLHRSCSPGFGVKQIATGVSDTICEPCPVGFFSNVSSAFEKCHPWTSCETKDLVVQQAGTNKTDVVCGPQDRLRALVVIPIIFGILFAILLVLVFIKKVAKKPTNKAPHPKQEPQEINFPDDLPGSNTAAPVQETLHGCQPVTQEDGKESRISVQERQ

| Binder | EC50 of antagonist activity in the CD40-dependent NF-kB SEAP reporter assay (HEK-293 transfected with human CD40, stimulated with recombinant CD40L); blocks m8 with m7 [1] [nM] | EC50 of inhibition of CD86 upregulation on primary human B cells stimulated with CD40L-expressing Jurkat cells; blocks m8 with m7 [1] [nM] | Antagonist: Jurkat/ Reporter assay IC50 nM; blocks m8 with m7 [2] [nM] | Agonist: huCD40 reporter assay IC50 [2] [nM] |
| --- | --- | --- | --- | --- |
| ABBV-323 (ravagalimab), human IgG1/κ anti-CD40 antagonist mAb (antibody, V domains shown) VH: EVQLVESGGGLVKPGGSLRLSCAASGFTFSDYGMNWVRQAPGKGLEWIAYISSGRGNIYYADTVKGRFTISRDNAKNSLYLQMNSLRAEDTAVYYCARSWGYFDVWGQGTTVTVSS VL: DIVMTQSPDSLAVSLGERATINCKSSQSLLNRGNQKNYLTWFQQKPGQPPKLLIYWASTRESGVPDRFSGSGSGTDFTLTISSLQAEDVAVYYCQNDYTYPLTFGQGTKLEIK | 3.7 | 0.6 | 3.1 |  |
| FAB516, anti-CD40 agonist antibody variant of ABBV-323 (antibody, V domains shown) VH: EVQLVESGGGLVKPGGSLRLSCAASGFTFSDYGMNWVRQAPGKGLEWVSYISSGRSNIYYADTVKGRFTISRDNAKNSLYLQMNSLRAEDTAVYYCARSWGYFDVWGQGTTVTVSS VL: DIVMTQSPDSLAVSLGERATINCKSSQSLLNLGNQKNYLTWFQQKPGQPPKLLIYWASTRESGVPDRFSGSGSGTDFTLTISSLQAEDVAVYYCQNDYTYPLTFGQGTKLEIK |  |  |  | 157 |
